Series [1] has as its target T1, His-tagged full-length C-terminal cytoplasmic domain of BAP29 (residues 125-237) (Homo sapiens (Human), UniProt Q9UHQ4).
T1 chain: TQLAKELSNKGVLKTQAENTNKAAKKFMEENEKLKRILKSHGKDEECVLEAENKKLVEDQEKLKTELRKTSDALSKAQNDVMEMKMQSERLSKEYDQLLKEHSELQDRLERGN
The series is described as follows: IMAC pull-down.

Series [2] deals with the molecule itself. The experiment in a line: CD thermal unfolding against protein concentration; midpoint of thermal unfolding at pH 6.0 with 0.25 µM to 5 µM protein.
Series [3] deals with the molecule itself. The experiment in a line: crystal structure; twinned P3_(2)21 form, selenomethionine labeled protein, crystal grown at 19 °C in 100 mM Na citrate pH 4.2, 33% PEG 400, 200 mM LiSO4.
Another series has as its target P51572. The experiment in a line: native MS; native ESI MS, 150 mM NH4 acetate pH 7, 1.24 mg/mL further diluted in 15% acetonitrile and 5% 2-propanol, LTQ-Orbitrap Velos.
Series [4] concerns the molecule itself. The series is described as follows: SEC; calibrated gel filtration, Superdex 200, 10-400 µM protein, 20 mM Na-P pH 7.0, 150 mM NaCl, 0.1 mM TCEP; Stoke's radius compared with radii of gyration of dimer and tetramer.
Series [5] deals with T2, His-tagged full-length C-terminal cytoplasmic domain of BAP31 (residues 124-242) (Homo sapiens (Human), UniProt P51572).
T2 chain: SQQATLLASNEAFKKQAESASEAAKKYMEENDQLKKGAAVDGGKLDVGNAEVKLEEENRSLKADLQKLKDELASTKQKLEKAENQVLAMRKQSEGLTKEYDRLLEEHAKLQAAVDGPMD
The series is described as follows: IMAC pull-down.

The target of series [6] is T3, BAP31 full-length C-terminal cytoplasmic region (residues 124-242), untagged (Homo sapiens (Human), UniProt P51572).
T3 chain: T2 chain
The experiment in a line: analytical gel filtration.

Square brackets hold non-standard residues; d marks the D form. SeMet = C[Se]CC[C@H](N)C(=O)O Where only a bound is given, the exact number is not on record here.

These results are taken from PMC3742741 (PLoS ONE, 2013).

B1: BAP31 full-length C-terminal cytoplasmic region (residues 124-242), untagged (domain or fragment, human, UniProt P51572 124-242, looked up)
chain: T2 chain
notes: BAP31, human, UniProt P51572, C-terminal cytoplasmic region, residues 124-242; also called BAP31 Cyt; BAP31 full-length cytoplasmic; source: E. coli BL21(DE3) Rosetta 2, purified (IMAC, TEV cleavage, reverse IMAC, gel filtration); not shown: His6, N-terminal, cleaved
Regarding B1, the binding result in series [1] is on record as “no binding”; in series [2], “binds”.

B2: Selenomethionine labeled BAP31 vDED (residues 168-233), untagged (domain or fragment, human, UniProt P51572 168-233, looked up)
chain: LDVGNAEVKLEEENRSLKADLQKLKDELASTKQKLEKAENQVLA[SeMet]RKQSEGLTKEYDRLLEEHAKL
notes: BAP31, human, UniProt P51572, vDED domain, residues 168-233; Same construct as m1, with selenomethionine; used for the P3_(2)21 crystal form at pH 4.2 (residues 169-220 modeled); also called BAP31 vDED acidic pH (P3_(2)21 form); source: E. coli BL21(DE3) Rosetta 2 grown in minimal medium, purified as the native protein with 2 mM TCEP; not shown: His6, N-terminal, cleaved
Consider B2, for which, in series [3], the binding result is on record as “binds”.

B3: BAP31 vDED (variant of death effector domain of human BAP31, residues 168-233), untagged (domain or fragment, UniProt P51572 168-233, looked up)
chain: LDVGNAEVKLEEENRSLKADLQKLKDELASTKQKLEKAENQVLAMRKQSEGLTKEYDRLLEEHAKL
notes: BAP31, human, UniProt P51572, vDED domain, residues 168-233; Vector pNIC28-Bsa4; also called vDED domain of BAP31; source: E. coli BL21(DE3) Rosetta 2, purified (IMAC, TEV cleavage, reverse IMAC, gel filtration); not shown: His6, N-terminal, cleaved
Regarding B3, the “dimer peak height relative to the monomer peak” value with P51572 is ≥35% of the monomer peak height. The “stoichiometry N” value in series [4] came to 2.

B4: BAP29 full-length C-terminal cytoplasmic region (residues 125-237), untagged (protein)
chain: T1 chain
For the molecule B4, the binding result in series [5] and in series [6] was “no binding” throughout.

The term stoichiometry N denotes the number of molecules, sites or subunits per partner or assembly.
